According to publication PMC11501004:

Molecular target: GST-LEA12^OR (Oryza rufipogon Griff.)
Assay: MST
Conditions: scale: fold

B1: MBP-OsSAPK10 (natural protein)
chain: MDRAALTVGPGMDMPIMHDGDRYELVRDIGSGNFGVARLMRSRADGQLVAVKYIERGDKIDENVQREIINHRSLRHPNIIRFKEVILTPTHLAIVMEYASGGELFERICNAGRFSEDEARFFFQQLISGVSYCHSMQVCHRDLKLENTLLDGSTAPRLKICDFGYSKSSVLHSQPKSTVGTPAYIAPEVLLKKEYDGKIADVWSCGVTLYVMLVGAYPFEDPDEPKNFRKTIQRILGVQYSIPDYVHISPECRDLIARIFVANPATRISIPEIRNHPWFLKNLPADLMDDSKMSSQYEEPEQPMQSMDEIMQILAEATIPAAGSGGINQFLNDGLDLDDDMEDLDSDPDLDVESSGEIVYAM
B1 was tested, and the Kd relative to that of LEA12^93-11 was 0.143.
